Laboratory results reported in publication PMC8786865 (Nature Communications, 2022).

B1: selected anti-SARS-CoV-2 spike antibody C1 (antibody, V domains shown)
VH: EVQLVQSGAEVKKPGASVKVSCKVSGYSFTDHSIHWVRQAPGKGLEWMGGISTQRGDTIYAQKFQGRVTMTEDTSTDTAYMELSSLKSEDTAVYYCARDGYYGSGTYYYYGMDVWGQGTTVTVSS
VL: DIQMTQSPSSVSASVGDRVTITCRASQSIGSFLAWYQQKPGKAPKLLIYGESNRATGVPSRFSGSGSGTDFTLTISSLQPEDFANYYCQQYNRYPWAFGGGTKVEIK
B2: selected anti-SARS-CoV-2 spike antibody B3 (antibody, V domains shown)
VH: EVQLVQSGAEVKKPGASVKVSCKVSGYTSPATIHWVRQAPGKGLEWMGGISPYKGDTIYAQKFQGRVTMTEDTSTDTAYMELSSLKSEDTAVYYCAKDSYYYDSSGSGLGGGFDYWGQGTLVTVSS
VL: DIQMTQSPSSVSASVGDRVTITCRASQDIGNHLAWYQQKPGKAPKLLIYASSNLASGVPSRFSGSGSGTDFTLTISSLQPEDFANYYCHQYATYPWTFGGGTKVEIK
B3: selected anti-SARS-CoV-2 spike antibody F7 (antibody, V domains shown)
VH: QVQLVQSGAEVKKPGASVKVSCKVSGYSFSTYTIHWVRQAPGKGLEWMGGINPYTGDTIYAQKFQGRVTMTEDTSTDTAYMELSSLKSEDTAVYYCARDGYSGYESSYYYYGMDVWGQGTTVTVSS
VL: DIQMTQSPSSVSASVGDRVTITCRASQDIGNHLAWYQQKPGKAPKLLIYASSNLASGVPSRFSGSGSGTDFTLTISSLQPEDFANYYCHQYATYPWTFGGGTKVEIK
B4: selected anti-SARS-CoV-2 spike antibody D3 (antibody, V domains shown)
VH: EVQLVQSGAEVKKPGASVKVSCKVSGYSFADYAIHWVRQAPGKGLEWMGGINPNIGDTIYAQKFQGRVTMTEDTSTDTAYMELSSLKSEDTAVYYCARDGYDFWSGSYGMDVWGQGTTVTVSS
VL: DIQMTQSPSSVSASVGDRVTITCRASQDIGNHLAWYQQKPGKAPKLLIYASSNLASGVPSRFSGSGSGTDFTLTISSLQPEDFANYYCQQYSEYPWTFGGGTKVEIK
B5: selected anti-SARS-CoV-2 spike antibody D2 (antibody, V domains shown)
VH: QVQLVQSGAEVKKPGASVKVSCKVSGYSFTDHSIHWVRQAPGKGLEWMGGINPYTGDTIYAQKFQGRVTMTEDTSTDTAYMELSSLKSEDTAVYYCARDARLLDYWGQGAQVTVSS
VL: DIQMTQSPSSVSASVGDRVTITCRASRSIGNHLAWYQQKPGKAPKLLIYASSNLASGVPSRFSGSGSGTDFTLTISSLQPEDFANYYCHQYATYPWTFGGGTKVEIK
B6: selected anti-SARS-CoV-2 spike antibody G2 (antibody, V domains shown)
VH: QVQLVQSGAEVKKPGASVKVSCKVSGYTFTANAIHWVRQAPGKGLEWMGGIGPGQGDTIYAQKFQGRVTMTEDTSTDTAYMELSSLKSEDTAVYYCARDGHCSGGSCPSGMDVWGQGTTVTVSS
VL: DIQMTQSPSSVSASVGDRVTITCRASQDIGNHLAWYQQKPGKAPKLLIYGASIRESGVPSRFSGSGSGTDFTLTISSLQPEDFANYYCQQYSAFPWTFGGGTKVEIK
B7: selected anti-SARS-CoV-2 spike antibody F5 (antibody, V domains shown)
VH: EVQLVQSGAEVKKPGASVKVSCKVSGYTFSNHAIHWVRQAPGKGLEWMGGINPNIGDTIYAQKFQGRVTMTEDTSTDTAYMELSSLKSEDTAVYYCARDGYSGYVEGMDVWGQGTTVTVSS
VL: DIQMTQSPSSVSASVGDRVTITCRASQNIHSYLAWYQQKPGKAPKLLIYDTSKLQSGVPSRFSGSGSGTDFTLTISSLQPEDFANYYCHQYAAYPWTFGGGTKVEIK
B8: selected anti-SARS-CoV-2 spike antibody C2 (antibody, V domains shown)
VH: QVQLVQSGAEVKKPGASVKVSCKASGYTSPATIHWVRQAPGKGLEWMGGISPYKGDTIYAQKFQGRVTMTEDTSTDTAYMELSSLKSEDTAVYYCARDAYSSSYYYGMDVWGQGTTVTVSS
VL: DIQMTQSPSSVSASVGDRVTITCRASEDISKYLAWYQQKPGKAPKLLIYGASNLHTGVPSRFSGSGSGTDFTLTISSLQPEDFANYYCHQYATYPWTFGGGTKVEIK
B9: selected anti-SARS-CoV-2 spike antibody A10 (antibody, V domains shown)
VH: QVQLVQSGAEVKKPGASVKVSCKVSGYSFTDHSIHWVRQAPGKGLEWMGGINPNIGDTIYAQKFQGRVTMTEDTSTDTAYMELSSLKSEDTAVYYCARDGYGDYRGLYGMDVWGQGTTVTVSS
VL: DIQMTQSPSSVSASVGDRVTITCRASRDINKYLAWYQQKPGKAPKLLIYGESSRAAGVPSRFSGSGSGTDFTLTISSLQPEDFANYYCHQYATYPWTFGGGTKVEIK
B10: selected anti-SARS-CoV-2 spike antibody B11 (antibody, V domains shown)
VH: EVQLVQSGAEVKKPGASVKVSCKVSGYSFTDHSIHWVRQAPGKGLEWMGGINPYTGDTIYAQKFQGRVTMTEDTSTDTAYMELSSLKSEDTAVYYCARDAYPYYYGMDVWGQGTTVTVSS
VL: DIQMTQSPSSVSASVGDRVTITCRASQDIGNHLAWYQQKPGKAPKLLIYASSNLASGVPSRFSGSGSGTDFTLTISSLQPEDFANYYCHQYATYPWTFGGGTKVEIK
B11: selected anti-SARS-CoV-2 spike antibody G4 (antibody, V domains shown)
VH: QVQLVQSGAEVKKPGASVKVSCKVSGYTLSDHAIHWVRQAPGKGLEWMGGINPYTGDTIYAQKFQGRVTMTEDTSTDTAYMELSSLKSEDTAVYYCARDGYDFWSGSYGMDVWGQGTTVTVSS
VL: DIQMTQSPSSVSASVGDRVTITCRASQDIGNHLAWYQQKPGKAPKLLIYASSNLASGVPSRFSGSGSGTDFTLTISSLQPEDFANYYCHQYATYPWTFGGGTKVEIK
B12: selected anti-SARS-CoV-2 spike antibody C4 (antibody, V domains shown)
VH: EVQLVQSGAEVKKPGASVKVSCKVSGYSFTDHSIHWVRQAPGKGLEWMGGINPYTGDTIYAQKFQGRVTMTEDTSTDTAYMELSSLKSEDTAVYYCARDGYSGYDYGSVGRDYYYYGMDVWGQGTTVTVSS
VL: DIQMTQSPSSVSASVGDRVTITCRASQDIGNHLAWYQQKPGKAPKLLIYASSNLASGVPSRFSGSGSGTDFTLTISSLQPEDFANYYCHQYATYPWTFGGGTKVEIK
B13: selected anti-SARS-CoV-2 spike antibody F1 (antibody, V domains shown)
VH: EVQLVQSGAEVKKPGASVKVSCKVSGYPFTSYAIHWVRQAPGKGLEWMGGITPYNADTIYAQKFQGRVTMTEDTSTDTAYMELSSLKSEDTAVYYCARDGYSSGYYGMDVWGQGTTVTVSS
VL: DIQMTQSPSSVSASVGDRVTITCRASQDIGNHLAWYQQKPGKAPKLLIYASSNLASGVPSRFSGSGSGTDFTLTISSLQPEDFANYYCHQYATYPWTFGGGTKVEIK
B14: selected anti-SARS-CoV-2 spike antibody B7 (antibody, V domains shown)
VH: QVQLVQSGAEVKKPGASVKVSCKVSGYSFTDHSIHWVRQAPGKGLEWMGGINPNIGDTIYAQKFQGRVTMTEDTSTDTAYMELSSLKSEDTAVYYCAKDGWGSLLNGIAVAGLDYWGQGTLVTVSS
VL: DIQMTQSPSSVSASVGDRVTITCRASQDIGNHLAWYQQKPGKAPKLLIYASSNLASGVPSRFSGSGSGTDFTLTISSLQPEDFANYYCHQYATYPWTFGGGTKVEIK
B15: selected anti-SARS-CoV-2 spike antibody C7 (antibody, V domains shown)
VH: QVQLVQSGAEVKKPGASVKVSCKVSGYSFTNYAIHWVRQAPGKGLEWMGGITPYNADTIYAQKFQGRVTMTEDTSTDTAYMELSSLKSEDTAVYYCARDGGNWAAPYSMDVWGNGTLVTVSS
VL: DIQMTQSPSSVSASVGDRVTITCRASHGISSYLAWYQQKPGKAPKLLIYDATIRATGVPSRFSGSGSGTDFTLTISSLQPEDFANYYCHQYATYPWTFGGGTKVEIK

molecular target: T1, SARS-CoV-2 spike receptor-binding domain (RBD) (SARS-CoV-2, Wuhan-Hu-1, UniProt P0DTC2); experiment: SPR; array SPR (Carterra LSA), HC200M chip; IgG captured on immobilised anti-human Fc; antigen as analyte in a 7-point series, RBD 300 nM to 411 pM or trimer 100 nM to 137 pM, in 1x HBSTE with 0.5 mg/mL BSA; association 5 min, dissociation 11 min; one-site model; constants for the trimer are called avidities; conditions: both partners purified
T1 construct: also called SARS-CoV-2 RBD

| Binder | binding result |
| --- | --- |
| B1 | binds |
| B2 | binds |
| B3 | binds |
| B4 | binds |
| B5 | binds |
| B6 | binds |
| B7 | binds |
| B8 | binds |
| B9 | binds |
| B10 | binds |
| B11 | binds |
| B12 | binds |
| B13 | binds |
| B14 | binds |
| B15 | binds |
